Assay results as given in patent US20220135665A1.
Values joined by “and” are separate entries in the source; they are usually repeats but may differ in a detail not shown here. Equal values may be shown once.

Tests used:
[1] = target: recombinant human VEGF165 protein (human) (UniProt P15692); experiment: streptavidin-coated sensor with immobilized biotin-labeled VEGF165; reference Lucentis
[2] = target: recombinant human VEGF165 protein (human) (UniProt P15692); experiment: ELISA; coated VEGF165 titrated (0.15-3000 ng/mL), Fab fixed at 1 ug/mL; EC50 is in coated antigen concentration
[3] = target: recombinant human VEGF165 protein (human) (UniProt P15692); experiment: cell-based or functional assay
[4] = target: recombinant human VEGF165 protein (human) (UniProt P15692); experiment: streptavidin-coated sensor with immobilized biotin-labeled VEGF165, Fab at multiple concentrations
[5] = target: recombinant human VEGF165 protein (human) (UniProt P15692); experiment: Table 3, binding affinity to recombinant VEGF165 (streptavidin-coated sensor, biotin-labeled VEGF165)

Row | fold affinity against Lucentis [1] | EC50 [2] | EC50(nM), neutralization of HUVEC proliferation, VEGF165 at 10 ng/mL [3] | Kd [4] | koff [4] | kon [4] | Kd [5] | koff [5] | kon [5] | EC50(nM), neutralization of HUVEC proliferation, VEGF165 at 100 ng/mL [3] | EC50(nM), neutralization of HUVEC proliferation, VEGF165 at 1000 ng/mL [3] | Maximum neutralization rate (%), VEGF165 at 10 ng/mL [3] | Maximum neutralization rate (%), VEGF165 at 100 ng/mL [3] | Maximum neutralization rate (%), VEGF165 at 1000 ng/mL [3] | Binder
1 | 3.75 fold | 0.0187 µg/mL | 0.23 nM and 0.18 nM and 0.22 nM | 154 pM | 4.21e-05 s⁻¹ | 274000 M⁻¹ s⁻¹ | – | – | – | – | – | – | – | – | humanized antibody VEGF-H988 Fab fragment (Fab, V domains shown) VH: QSVQESGPGLVKPSETLSLTCTVSGIDLSSYAISWVRQPPGKGLEYIGYIWNDLFTYYASWAKGRVTISVDTSKNQVDLKLSSVTAADTAVYFCARGTLGDYGGMDPWGQGTLVTVSS VL: ELQLTQSPSSLSASVGDRVTITCQSSKFLWQGRRLAWYQQKPGKVPKLLIYGASTLASGVPSRFKGSGSGTDFTLTISSLQPEDVATYYCAGYKSYDGDVVGFGGGTKVEIKR
2 | – | – | – | – | – | – | 19.5 pM | 6.7e-06 s⁻¹ | 344000 M⁻¹ s⁻¹ | – | – | – | – | – | VEGF-H988 (sample label in Table 3) (antibody, V domains shown) VH: QSVQESGPGLVKPSETLSLTCTVSGIDLSSYAISWVRQPPGKGLEYIGYIWNDLFTYYASWAKGRVTISVDTSKNQVDLKLSSVTAADTAVYFCARGTLGDYGGMDPWGQGTLVTVSS VL: ELQLTQSPSSLSASVGDRVTITCQSSKFLWQGRRLAWYQQKPGKVPKLLIYGASTLASGVPSRFKGSGSGTDFTLTISSLQPEDVATYYCAGYKSYDGDVVGFGGGTKVEIK
3 | – | – | 0.41 nM | – | – | – | – | – | – | 6.74 nM | 71.2 nM | 100% | 101% | 101% | Brolucizumab (scFv, INN chains, looked up, V domains shown, scFv) VH: EVQLVESGGGLVQPGGSLRLSCTASGFSLTDYYYMTWVRQAPGKGLEWVGFIDPDDDPYYATWAKGRFTISRDNSKNTLYLQMNSLRAEDTAVYYCAGGDHNSGWGLDIWGQGTLVTVSS VL: EIVMTQSPSTLSASVGDRVIITCQASEIIHSWLAWYQQKPGKAPKLLIYLASTLASGVPSRFSGSGSGAEFTLTISSLQPDDFATYYCQNVYLASTNGANFGQGTKLTVL
